# Data as given in the nanobody polyreactivity screen of Harvey et al. (2022).
# Experiment: yeast display, Sf9 membrane polyspecificity reagent, FACS + sequencing; frameworks hold sequencing errors
# In short: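 Genes from sorted yeast were amplified by colony PCR, read by MiSeq 2 × 250 sequencing and filtered on CDR length. These cells carried a synthetic nanobody library in Saccharomyces cerevisiae BJ5465 and were sorted by FACS into low and high (top ~1%) gates on anti-HA and streptavidin fluorescence. Polyreactivity is labelled according to the gate of origin.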
row,Sequence,polyreactivity (PSR sort gate)
1,QVQLVESGGGLVQAGGSLRLSCAASGRTFDYNAMGWYRQAPGKERELFAAISQSGGRTYYADSVKGRFTISRDNAKNTVYLQMYSLKPVDTAVYYCAAEAYGNRDYWGQGTQVTVSS,low polyreactivity
2,QVQLVESGGGLVQAGGSLRLSCAASGRTFDYYAMGWYRQAPGKERELVAAITLSAGRTYYADSVKGRFTISRDNAKNTVYLQMNSLKPEDTAVYYCAARFRRLQRFYYWGQGTQVTVSS,high polyreactivity
3,QVQLVESGGGLVQAGGSLRLSCAASGRTFDYYAMGWYRQAPRKERELVAAISSGGSTNYADSVKGRFTISRDNAKNTVYLQMNSLKPEATAVYYCAVSGIDDVKYDYWGQGTQVTVSS,low polyreactivity
4,QVQLVESGGGLVQAGGSLRLSCAASGRTFDYYTMGWYRQAPGKERELVAAISWSGSTTYYADSVKGRFTISRDNAKNTVSLQMNSLKPEDTAVYYCAKSYRFPSVGPPGELDYWGQGTQVTVSS,high polyreactivity
5,QVQLVESGGGLVQAGGSLRLSCAASGRTFEGNAMGWDRQAPGKERELVAALTYPGGDTHYADSVKGRCTISRDNPKNTVYLQMTSLKPEDTAGYYCAADWGWPHTDSMDYWGQGTQVTVSS,low polyreactivity
6,QVQLVESGGGLVQAGGSLRLSCAASGRTFEGNAMGWYRQAPGKERELVAAISGSGGRTYYADSVKGRFTISRDNAKNTVYLQMNSLKPEDTAVYYAKLYSVYNPWRFNYWGQGTQVTVSS,high polyreactivity
7,QVQLVESGGGLVQAGGSLRLSCAASGRTFEGYTMGWYRQAPGKERELVAAITWRGTSTYYADSVKGRFTISRDNAKNTVYLQMNSLKPEDTAVYYCNKVGWYHNYYYWGQGTQVTVSS,high polyreactivity
8,QVQLVESGGGLVQAGGSLRLSCAASGRTFEGYTMGWYRQAPGKERELVSAISWSGARTYYADSVKGRFTISRDNAKNTVYLQMNSLKPEDTAVYYCAADRYWISLWYIMGYWGQGTQVTVSS,high polyreactivity
9,QVQLVESGGGLVQAGGSLRLSCAASGRTFEHYAMVWYRPAPGKERELVAAITWSGVSTYYADSVKGRFTISRDNAKNTVYLQMNSLKPEDTAVYYCAAKWLGYGFDYWGQGTQVTVSS,low polyreactivity
10,QVQLVESGGGLVQAGGSLRLSCAASGRTFERNAMGWYRQAPGKERELVAAITSGDGTSYADSVKGRFTISRDNAKNTVYLQMNSLKPEDTAVYYCAVSKGVFLVRGYAYHVGYWGQGTQVTVSS,low polyreactivity
11,QVQLVESGGGLVQAGGSLRLSCAASGRTFERNAMGWYRQAPGKERQLVAAITSGDGTSYADSVKGRFTISRDNAKNTVYLQMNSLKPEDTAVYYCAAPFVGSVVIRRWDEYDYWGQGTQVTVSS,low polyreactivity
12,QVQLVESGGGLVQAGGSLRLSCAASGRTFERYAMGWYRQAPGKERELVAAISSIGGSTYYADSVKGRFTISRDNAKNTVYLQMNSLKPEDTAVYYCADSVFYYASRYDYWGQGTKVTVSS,low polyreactivity
13,QVQLVESGGGLVQAGGSLRLSCAASGRTFESYAMGWYRQAPGKERELVAAITSTDDRTYYADSVKGRFTISRDNAKNTVYLQMNSLKPEDTAVYYCAVESRRDDFEYDYWGQGTQVTVSS,low polyreactivity
14,QVQLVESGGGLVQAGGSLRLSCAASGRTFEYYAMGWYRQAPGKERELVAAITSGGITYYADSVKGRFTISRDNAKYTVYLQMNSLKPEDTAVYYCNARHRYYRYGYWGQGTQVTVSS,high polyreactivity
15,QVQLVESGGGLVQAGGSLRLSCAASGRTFEYYAMGWYRQAPGKERELVASITSSGVRTYYADSVKGRFTISRDNAKNTVYLQMNSLKPEDTAVYYCAKRLVYSRWGDYWGQGTQVTVSS,high polyreactivity
16,QVQLVESGGGLVQAGGSLRLSCAASGRTFFGYAMGWYRQAPGKERELVAAITTSGGSTYYADSVKGRFTISRDNAKNTVYLQMNSLKPEDTAVYYCAADSTNYWLGFYYWGQGTQVTVSS,low polyreactivity
17,QVQLVESGGGLVQAGGSLRLSCAASGRTFFHNPMGWYRQAPGKERELVAAISSGGGTYADSVKGRFTISRDNAKNTVYLQINSLKPEDTAVYYCAATLYNTEDDYWGQGTQVTVSS,low polyreactivity
18,QVQLVESGGGLVQAGGSLRLSCAASGRTFFIYAMGWYRPAPGKERELVAAITYGGGRTFYADSVKGRFTISRDNAKYTVYLQMNSLKPEDTAVYYCAATVRGKRSTYDYWGQGTQVTVSS,high polyreactivity
19,QVQLVESGGGLVQAGGSLRLSCAASGRTFFKNAMGWYRQAPGKERELVAAITSSGGTTYYADSVKGRFTISRDNAKNTVYLQMNSLKPEDTAVYYCATRTYPIRYGYGYWGQGTQVTVSS,high polyreactivity
20,QVQLVESGGGLVQAGGSLRLSCAASGRTFFKYVMGWSRQAPGKERELVAAITWNGGRTNYADSVKGRFTISRDYAKNTVYLQMNSLKPEDTAVYYCAAVTSVNPSVFNGNYWGQGTQVTVSS,low polyreactivity
21,QVQLVESGGGLVQAGGSLRLSCAASGRTFFLYALGWYRQATGKERELFARISTSGGGTYYADSVKGRFTISRDHAKNTVYLQMISLKPEDTAVYYCAARTDRGQRRAGGYDFWGQGTQVTVSS,high polyreactivity
22,QVQLVESGGGLVQAGGSLRLSCAASGRTFFPNAMGWYRQAPGKERELVASITSRGGGTYYADSVKGRFTISRDYAKNTVYLQMNSLKPEDTAVYYCADDRYYFSPGYNWWSEGYDYWGQGTQVTVSS,low polyreactivity

row,Sequence,polyreactivity (PSR sort gate)
1,QVQLVESGGGLVQAGGSLRLSCAASGRTFFPYAMGWYRQAPGKEREFVAAITWSGGSTTYADSVKGRFTISRDNAKNTVYLQMTSLKPEDTAVYYCNDGRRRSYSYDYWGQGTQVTVSS,low polyreactivity
2,QVQLVESGGGLVQAGGSLRLSCAASGRTFFPYGMGWYRQAPGKERELVASISYSGGITYYADSVKGRFTISRDNAKNTVYLQMNSLKPEDTAVYYCSVRTIWRFRYDYWGQGTQVTVSS,high polyreactivity
3,QVQLVESGGGLVQAGGSLRLSCAASGRTFFQYGMGWYRQAPGKERELVASITRSGGRTNYADSVKGRFTISRDNAKNTVYLQMNSLKPEDTAVYYCAAYYYGSAAYGYGYNYWGQGTQVTVSS,high polyreactivity
4,QVQLVESGGGLVQAGGSLRLSCAASGRTFFRNAMGWYRQAPGKERELVAAISKRGGSTRYADSVKGRFTISRDNAKNTAYLQMNSLQPEDTAVYYCAADSRLEYSHATLYYCGQGTQVTVSS,high polyreactivity
5,QVQLVESGGGLVQAGGSLRLSCAASGRTFFRYGMGWYRQAPGKEREFVAAITRSGTTTYYADSVKGRFTISRDNAKNTVYLQMNSLKPEDTAVYYCAAQRAARVDGKSDYWGQGTQVTVTS,low polyreactivity
6,QVQLVESGGGLVQAGGSLRLSCAASGRTFFSNAMGWYRQAPGKERELVAVIDSGGSTYYADSVKGRFTISRDNAKNTVYLQMNSLKPEDTAVYYCAADTGTAPSEDYLGQGTQVTVSS,low polyreactivity
7,QVQLVESGGGLVQAGGSLRLSCAASGRTFFSYTMGWYRQAPGKEREFVAAITTSGGYTHYADSVKGRFTISRDNAKNTVYLQMNSLIPEDTAVYYCAAVGRYPYKGYNYWGQGTQVTVSS,high polyreactivity
8,QVQLVESGGGLVQAGGSLRLSCAASGRTFFVNAMGWYRQAPGKERELVAGITRTGGTTYYADSVKGRFTISRDNAKNTVYLQMNSLKPEDTAVYYCAATPGGTDLGGGYYGFDYWGQGTQVTVSS,low polyreactivity
9,QVQLVESGGGLVQAGGSLRLSCAASGRTFFVYDMGWYRQAPGKERELVAAISRGGSTNYADSVKGRFTISRDNAKNTVYLQMNSLKPEDTAVYYCAASVQYRRLKKFYYWGQGTQVTVSS,high polyreactivity
10,QVQLVESGGGLVQAGGSLRLSCAASGRTFFWYAMGWYRQAPGKERELVADISSSGGSTYYADSVKGRFTISRDNAKNTVYLQMNSLKPEDTAVYYCAALSPWWRGGYDYWGQGTQVTVSS,high polyreactivity
11,QVQLVESGGGLVQAGGSLRLSCAASGRTFFWYAMGWYRQAPGKERELVAGISRGGRTNYADSVKGRFTISRDNAKNTVYLQMNSLKPEDTAVYYCAADSWLTYFLGTSEHYYWGQGTQVTVSS,high polyreactivity
12,QVQLVESGGGLVQAGGSLRLSCAASGRTFFWYVMGWYRQAPGKERELVATISYGGITYYADSVKGRFTISRDNAKNTVYLQMNSLKPEETALYYCAAKPSRSLYYYWGQGTQVTVSS,high polyreactivity
13,QVQLVESGGGLVQAGGSLRLSCAASGRTFFYNARGWYRQEPGKERELVAAIDWSGDSTYYADSVKGRFTISRDNAKNTVYLQMNSLKPEDTAVYYCAARRKNRRDYDYYYWGQGTQVTVSS,high polyreactivity
14,QVQLVESGGGLVQAGGSLRLSCAASGRTFFYNTMGWYRQAPGKERELVARITRGGSTYYADSVKGRFTISRDNAKNSVYLQMNSLKPEDTAVYYCAAGYWRGYFLYGFDYWGQGTQVTVSS,high polyreactivity
15,QVQLVESGGGLVQAGGSLRLSCAASGRTFGANAMGWYRQAPGKERELVAAINSGDITNYADSVKGRFTISRDNAKNTVYLQMNSLKPEDTAVYYCAAGSYYTYSGYNYWGQGTQVTVSS,low polyreactivity
16,QVQLVESGGGLVQAGGSLRLSCAASGRTFGAYAMGCYRQAPGKERELVAAISIGGRTYYADSVKGRFTISRDKAKNTVYLQMNILKPEDTAVYYCNKVRSPWYDSWGQGTQVTVSS,high polyreactivity
17,QVQLVESGGGLVQAGGSLRLSCAASGRTFGAYAMGWYRQAPGKERELVAAISSSGGSTYYADSLKGRFTISRDNAKNTVYLQMNSLKPEDTAVYYCAKGWHRGVGFGYWGQGTQVTVSS,high polyreactivity
18,QVQLVESGGGLVQAGGSLRLSCAASGRTFGCYAMGWYRQAPGKERELVASITQRGGRTYYADSVKGRFTISRDNAKNTVYLQMNSLKPEDTAVYYCAAKTSPGMYYWVQGTQVTVSS,high polyreactivity
19,QVQLVESGGGLVQAGGSLRLSCAASGRTFGDYAMGWYRQAPGKERELVAAITIGGSTYYADSVKGRFTISRDNAKNTVYLQMNSLKPEDTAVYYCAATTYSIPSRYDSWGQGTQVNVSS,low polyreactivity
20,QVQLVESGGGLVQAGGSLRLSCAASGRTFGEYAMGWYRQAPGKERELVAAISSAGSTYYADSVKGRFTISRDNAKNTVYLQMNSLKPEDTAVYYCAASRKYGYGYWGQGTQVTVSS,high polyreactivity
21,QVQLVESGGGLVQAGGSLRLSCAASGRTFGFNAMGWYRQAPGKERELVAAISSSSSSTYYADSVKGRFTISRDIAKNTVYLQMNSLKPEDTAVYYCAADIVYVTWFYYWGQGTQVTVSS,low polyreactivity
